Test results reported in paper PMC9481740 (The Journal of Cell Biology, 2022).
Several values for one entry are separate records, joined by “and”; a condition that tells them apart may be missing. Equal entries are not always repeated.

Assays:
[1] = target: the molecule itself; assay: mass photometry; Refeyn TwoMP; sample diluted to a final 10 nM in Spindly buffer (50 mM Hepes pH 8.0, 250 mM NaCl, 2 mM TCEP); crosslinked samples measured after dilution beside untreated controls
[2] = target: the molecule itself; assay: not stated; unpublished observations; dimer-tetramer equilibrium, tetramer prevailing at micromolar concentration
[3] = target: the molecule itself; assay: crystal structure; Spindly 1-100, Se-SAD, refined to 2.8 Å; Bis-Tris Propane/HCl pH 6.5, 19% PEG3350, 0.2 M potassium thiocyanate

Protein | stoichiometry N [1] | other results
^mChSpindly^CC2* (R295E-K297E) (natural protein, human, UniProt Q96EA4 1-605, looked up, source: E. coli BL21 CodonPlus, purified (HisTrap, Resource Q, Superdex 200); not shown: mCherry, N-terminal, kept) MEADIITNLRCRLKEAEEERLKAAQYGLQLVESQNELQNQLDKCRNEMMTMTESYEQEKYTLQREVELKSRMLESLSCECEAIKQQQKMHLEKLEEQLSRSHGQEVNELKTKIEKLKVELDEARLSEKQLKHQVDHQKELLSCKSEELRVMSERVQESMSSEMLALQIELTEMESMKTTLKEEVNELQYRQEQLELLITNLMRQVDRLKEEKEEREKEAVSYYNALEKARVANQDLQVQLDQALQQALDPNSKGNSLFAEVEDRRAAMERQLISMKVKYQSLKKQNVFNREQMQEMELQIATLLQMKGSQTEFEQQERLLAMLEQKNGEIKHLLGEIRNLEKFKNLYDSMESKPSVDSGTLEDNTYYTDLLQMKLDNLNKEIESTKGELSIQRMKALFESQRALDIERKLFANERCLQLSESENMKLRAKLDELKLKYEPEETVEVPVLKKRREVLPVDITTAKDACVNNSALGGEVYRLPPQKEETQSCPNSLEDNNLQLEKSVSIYTPVVSLSPHKNLPVDMQLKKEKKCVKLIGVPADAEALSERSGNTPNSPRLAAESKLQTEVKEGKETSSKLEKETCKKLHPILYVSSKSTPETQCPQQ | 2 | 
^mChSpindly^ΔRV (natural protein, human, UniProt Q96EA4 1-605, looked up, also called ^mChSpindly^∆RV; source: E. coli BL21 CodonPlus, purified (HisTrap, Resource Q, Superdex 200); not shown: mCherry, N-terminal, kept) MEADIITNLRCRLKEAEEERLKAAQYGLQLVESQNELQNQLDKCRNEMMTMTESYEQEKYTLQREVELKSRMLESLSCECEAIKQQQKMHLEKLEEQLSRSHGQEVNELKTKIEKLKVELDEARLSEKQLKHQVDHQKELLSCKSEELRVMSEQESMSSEMLALQIELTEMESMKTTLKEEVNELQYRQEQLELLITNLMRQVDRLKEEKEEREKEAVSYYNALEKARVANQDLQVQLDQALQQALDPNSKGNSLFAEVEDRRAAMERQLISMKVKYQSLKKQNVFNREQMQRMKLQIATLLQMKGSQTEFEQQERLLAMLEQKNGEIKHLLGEIRNLEKFKNLYDSMESKPSVDSGTLEDNTYYTDLLQMKLDNLNKEIESTKGELSIQRMKALFESQRALDIERKLFANERCLQLSESENMKLRAKLDELKLKYEPEETVEVPVLKKRREVLPVDITTAKDACVNNSALGGEVYRLPPQKEETQSCPNSLEDNNLQLEKSVSIYTPVVSLSPHKNLPVDMQLKKEKKCVKLIGVPADAEALSERSGNTPNSPRLAAESKLQTEVKEGKETSSKLEKETCKKLHPILYVSSKSTPETQCPQQ | 2 | 
^mChSpindly^∆276–306 (natural protein, human, UniProt Q96EA4 1-605, looked up, predominantly dimeric, with a tendency to form tetramers; source: E. coli BL21 CodonPlus, purified (HisTrap, Resource Q, Superdex 200); not shown: mCherry, N-terminal, kept) MEADIITNLRCRLKEAEEERLKAAQYGLQLVESQNELQNQLDKCRNEMMTMTESYEQEKYTLQREVELKSRMLESLSCECEAIKQQQKMHLEKLEEQLSRSHGQEVNELKTKIEKLKVELDEARLSEKQLKHQVDHQKELLSCKSEELRVMSERVQESMSSEMLALQIELTEMESMKTTLKEEVNELQYRQEQLELLITNLMRQVDRLKEEKEEREKEAVSYYNALEKARVANQDLQVQLDQALQQALDPNSKGNSLFAEVEDRRAAMERQLISMKGSQTEFEQQERLLAMLEQKNGEIKHLLGEIRNLEKFKNLYDSMESKPSVDSGTLEDNTYYTDLLQMKLDNLNKEIESTKGELSIQRMKALFESQRALDIERKLFANERCLQLSESENMKLRAKLDELKLKYEPEETVEVPVLKKRREVLPVDITTAKDACVNNSALGGEVYRLPPQKEETQSCPNSLEDNNLQLEKSVSIYTPVVSLSPHKNLPVDMQLKKEKKCVKLIGVPADAEALSERSGNTPNSPRLAAESKLQTEVKEGKETSSKLEKETCKKLHPILYVSSKSTPETQCPQQ | 2 and 4 | 
Spindly^1–275 (domain or fragment, human, UniProt Q96EA4 1-275, looked up, source: TnAO38 insect cells (baculovirus), purified (HisTrap, Resource Q, Superdex 200)) MEADIITNLRCRLKEAEEERLKAAQYGLQLVESQNELQNQLDKCRNEMMTMTESYEQEKYTLQREVELKSRMLESLSCECEAIKQQQKMHLEKLEEQLSRSHGQEVNELKTKIEKLKVELDEARLSEKQLKHQVDHQKELLSCKSEELRVMSERVQESMSSEMLALQIELTEMESMKTTLKEEVNELQYRQEQLELLITNLMRQVDRLKEEKEEREKEAVSYYNALEKARVANQDLQVQLDQALQQALDPNSKGNSLFAEVEDRRAAMERQLISM |  | stoichiometry N [2]: 2 and 4
Spindly^1–100 (domain or fragment, human, UniProt Q96EA4 1-100, looked up, selenomethionine protein was also made for phasing; source: E. coli BL21 (DE3), purified (Ni-Sepharose, ion exchange, S200 SEC); not shown: His6, N-terminal, cleaved) MEADIITNLRCRLKEAEEERLKAAQYGLQLVESQNELQNQLDKCRNEMMTMTESYEQEKYTLQREVELKSRMLESLSCECEAIKQQQKMHLEKLEEQLSR |  | stoichiometry N [3]: 2
